Measurements published in paper PMC5308204 (Nature genetics, 2010).
Substitutions are numbered along the chain they refer to.

What was measured:
Assay in all cases: co-IP
HA-tagged VPS33B = biological target: T1, HA-tagged VPS33B (human, UniProt Q9H267 1-617)
T1 sequence (looked up): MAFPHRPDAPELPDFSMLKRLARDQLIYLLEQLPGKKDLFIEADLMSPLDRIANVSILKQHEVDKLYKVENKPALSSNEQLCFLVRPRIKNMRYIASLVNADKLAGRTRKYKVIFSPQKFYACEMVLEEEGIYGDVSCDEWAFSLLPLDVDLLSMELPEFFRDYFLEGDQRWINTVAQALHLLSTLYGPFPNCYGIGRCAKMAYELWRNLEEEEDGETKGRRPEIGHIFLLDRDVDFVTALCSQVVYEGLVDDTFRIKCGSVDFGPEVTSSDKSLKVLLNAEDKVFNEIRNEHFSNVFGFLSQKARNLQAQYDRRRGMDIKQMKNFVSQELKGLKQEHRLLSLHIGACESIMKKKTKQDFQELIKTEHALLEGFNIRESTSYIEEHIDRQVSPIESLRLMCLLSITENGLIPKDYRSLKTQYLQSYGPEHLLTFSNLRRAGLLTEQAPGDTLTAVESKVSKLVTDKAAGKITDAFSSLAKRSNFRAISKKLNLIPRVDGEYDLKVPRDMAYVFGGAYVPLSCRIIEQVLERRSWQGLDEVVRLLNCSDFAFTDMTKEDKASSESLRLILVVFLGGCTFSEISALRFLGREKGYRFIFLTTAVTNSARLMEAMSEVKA

[1] = biological target: T2, HA-tagged VPS33B (L30P) mutant (human, UniProt Q9H267 1-617, L30P)
T2 sequence (looked up): T1 sequence (looked up) with L30P

HA-tagged VPS33A = biological target: T3, HA-tagged VPS33A (UniProt Q96AX1 1-596)
T3 sequence (looked up): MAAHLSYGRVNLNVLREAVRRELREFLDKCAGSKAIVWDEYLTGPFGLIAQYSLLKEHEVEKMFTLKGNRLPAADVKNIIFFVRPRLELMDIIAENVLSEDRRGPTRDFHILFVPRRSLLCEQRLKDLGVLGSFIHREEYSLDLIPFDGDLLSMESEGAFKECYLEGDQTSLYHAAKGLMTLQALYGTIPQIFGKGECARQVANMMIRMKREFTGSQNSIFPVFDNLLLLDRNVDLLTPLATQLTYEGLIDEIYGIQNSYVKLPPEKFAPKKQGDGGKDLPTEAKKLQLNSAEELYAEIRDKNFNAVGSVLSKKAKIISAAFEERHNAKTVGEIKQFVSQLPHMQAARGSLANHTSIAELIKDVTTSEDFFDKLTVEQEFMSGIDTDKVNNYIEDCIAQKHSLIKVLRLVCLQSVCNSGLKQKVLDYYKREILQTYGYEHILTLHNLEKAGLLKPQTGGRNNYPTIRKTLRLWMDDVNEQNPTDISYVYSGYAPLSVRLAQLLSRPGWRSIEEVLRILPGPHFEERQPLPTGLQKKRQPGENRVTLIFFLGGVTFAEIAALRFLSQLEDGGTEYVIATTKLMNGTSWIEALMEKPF

B1: Myc-tagged VIPAR (natural protein, human, UniProt Q9H9C1 1-493, looked up)
chain: MNRTKGDEEEYWNSSKFKAFTFDDEDDELSQLKESKRAVNSLRDFVDDDDDDDLERVSWSGEPVGSISWSIRETAGNSGSTHEGREQLKSRNSFSSYAQLPKPTSTYSLSSFFRGRTRPGSFQSLSDALSDTPAKSYAPELGRPKGEYRDYSNDWSPSDTVRRLRKGKVCSLERFRSLQDKLQLLEEAVSMHDGNVITAVLIFLKRTLSKEILFRELEVRQVALRHLIHFLKEIGDQKLLLDLFRFLDRTEELALSHYREHLNIQDPDKRKEFLKTCVGLPFSAEDSAHIQDHYTLLERQIIIEANDRHLESAGQTEIFRKHPRKASILNMPLVTTLFYSCFYHYTEAEGTFSSPVNLKKTFKIPDKQYVLTALAARAKLRAWNDVDALFTTKNWLGYTKKRAPIGFHRVVEILHKNNAPVQILQEYVNLVEDVDTKLNLATKFKCHDVVIDTYRDLKDRQQLLAYRSKVDKGSAEEEKIDALLSSSQIRWKN
- percent of the Myc-tagged input recovered (HA-tagged VPS33B): 28.6%
- percent of the Myc-tagged input recovered [1]: 23.8%

B2: Myc-tagged VPS16 (natural protein, human, UniProt Q9H269 1-839, looked up)
chain: MDCYTANWNPLGDSAFYRKYELYSMDWDLKEELRDCLVAAAPYGGPIALLRNPWRKEKAASVRPVLDIYSASGMPLASLLWKSGPVVSLGWSAEEELLCVQEDGAVLVYGLHGDFRRHFSMGNEVLQNRVLDARIFHTEFGSGVAILTGAHRFTLSANVGDLKLRRMPEVPGLQSAPSCWTVLCQDRVAHILLAVGPDLYLLDHAACSAVTPPGLAPGVSSFLQMAVSFTYRHLALFTDTGYIWMGTASLKEKLCEFNCNIRAPPKQMVWCSRPRSKERAVVVAWERRLMVVGDAPESIQFVLDEDSYLVPELDGVRIFSRSTHEFLHEVPAASEEIFKIASMAPGALLLEAQKEYEKESQKADEYLREIQELGQLTQAVQQCIEAAGHEHQPDMQKSLLRAASFGKCFLDRFPPDSFVHMCQDLRVLNAVRDYHIGIPLTYSQYKQLTIQVLLDRLVLRRLYPLAIQICEYLRLPEVQGVSRILAHWACYKVQQKDVSDEDVARAINQKLGDTPGVSYSDIAARAYGCGRTELAIKLLEYEPRSGEQVPLLLKMKRSKLALSKAIESGDTDLVFTVLLHLKNELNRGDFFMTLRNQPMALSLYRQFCKHQELETLKDLYNQDDNHQELGSFHIRASYAAEERIEGRVAALQTAADAFYKAKNEFAAKATEDQMRLLRLQRRLEDELGGQFLDLSLHDTVTTLILGGHNKRAEQLARDFRIPDKRLWWLKLTALADLEDWEELEKFSKSKKSPIGYLPFVEICMKQHNKYEAKKYASRVGPEQKVKALLLVGDVAQAADVAIEHRNEAELSLVLSHCTGATDGATADKIQRARAQAQKK
- percent of the Myc-tagged input recovered (HA-tagged VPS33A): 28.2%
